# Measured values: patent US12091454B2, “Humanized anti-human neurotensin receptor 1 antibodies and their uses” (DEVELOPMENT CENTER FOR BIOTECHNOLOGY, priority 2022, dated 2024)
# B1: AKT2 HuHu: humanized anti-NTSR1 antibody, AKT2 HuVH (SEQ ID NO: 16) and AKT2 HuVL (SEQ ID NO: 17) (antibody, V domains shown)
# VH: QVQLVQSGAEVKKPGASVKVSCKASGYAFTSSWIHWVRQAPGQGLEWMGQIRPNSGNTYYNEKFKVRVTMTRDTSTSTVYMELSSLRSEDTAVYYCARYHYGFDYWGQGTLVTVSS
# VL: DIVMTQTPLSLSVTPGQPASISCRSSQSIVHSNGNTYLEWYLQKPGQSPQLLIYKVSNRFSGVPDRFSGSGSGTDFTLKISRVEAEDVGVYYCFQGAHLPWTFGQGTKVEIK
# B2: AKT2 HuHd: humanized anti-NTSR1 antibody, AKT2 HuVH (SEQ ID NO: 16) and AKT2 HdVL (SEQ ID NO: 15) (antibody, V domains shown)
# VH: B1 VH
# VL: DIQMTQSPSSLSASVGDRVTITCRSSQSIVHSNGNTYLEWYQQKPGKAPKLLIYKVSNRFSGVPSRFSGSGSGTDFTLTISSLQPEDFATYYCFQGAHLPWTFGQGTKVEIK
# B3: αNTSR1 (AKT2) 4seco-DUBA: antibody-drug conjugate of chimera antibody AKT2 with seco-DUBA payload (conjugate)
# heavy chain: QVQLQQPGSVLVRPGASVKLSCKASGYAFTSSWIHWAKQRPGQGLEWIGQIRPNSGNTYYNEKFKVKATLTVDTSSSTAYVDLSSLTSEDSAVYYCARYHYGFDYWGQGTLVTVSS
# light chain: DVLMTQTPLSLPVSLGDQASISCRSSQSIVHSNGNTYLEWYLQKPGQSPKLLIYKVSNRFSGVPDRFSGSGSGTDFTLKISRVEAEDLGVYYCFQGAHLPWTFGGGTKLEIK
# B4: αNTSR1 (AKT2 Hu/Hu) 4seco-DUBA: antibody-drug conjugate of humanized antibody AKT2 HuHu with seco-DUBA payload (conjugate)
# heavy chain: B1 VH
# light chain: B1 VL
# B5: αNTSR1 (AKT2 Hu/Hd) 4seco-DUBA: antibody-drug conjugate of humanized antibody AKT2 HuHd with seco-DUBA payload (conjugate)
# heavy chain: B1 VH
# light chain: B2 VL
# Target: NTSR1 protein (Homo sapiens, UniProt P30989)
# Sequence (P30989 whole entry): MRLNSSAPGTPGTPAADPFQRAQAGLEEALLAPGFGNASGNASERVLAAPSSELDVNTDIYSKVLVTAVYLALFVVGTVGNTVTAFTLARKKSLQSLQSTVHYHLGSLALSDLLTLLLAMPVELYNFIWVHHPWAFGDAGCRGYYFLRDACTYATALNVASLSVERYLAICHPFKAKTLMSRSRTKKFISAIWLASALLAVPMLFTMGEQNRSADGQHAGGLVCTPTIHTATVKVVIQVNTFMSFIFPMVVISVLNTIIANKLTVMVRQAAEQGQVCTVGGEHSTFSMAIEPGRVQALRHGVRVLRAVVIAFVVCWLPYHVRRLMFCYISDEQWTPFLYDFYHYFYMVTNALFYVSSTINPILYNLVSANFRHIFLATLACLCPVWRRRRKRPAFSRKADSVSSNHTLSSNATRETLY
# Assay: SPR (BIACORE T200) multi-cycle kinetic assay
# Conditions: 25° C., one-to-one Langmuir binding model
# Procedure: To know the binding kinetics differences among individual anti-NTSR1 antibodies, surface plasmon resonance (SPR) measurement with BIACORE™ T200 (CYTIVA® Inc.) was used as previously described (Karlsson & Falt, (1997) J. Immunol Methods 200:121-133). Carboxymethylated dextran biosensor chips (CM5, CYTIVA® Inc.) were activated with N-ethyl-N′-(3-dimethylaminopropyl)-carbodiimide hydrochloride (EDC) and N-hydroxysuccinimide (NHS) according to the supplier's instructions. NTSR1 protein was diluted with 10 mM sodium acetate, pH 4.0, into 5 μg/ml before injection at a flow rate of 10 μL/minute to achieve approximately 1500 response units (RU) of coupled protein followed by the injection of 1 M ethanolamine to block unreacted groups. For kinetics measurements, two-fold serial dilutions of anti-NTSR1 mAb (0.3125 nM to 40 nM) were injected in HBS-EP+BIACORET™ running buffer provided by the manufacturer (CYTIVA® Inc.) at 25° C. at a flow rate of 30 μL/min, and binding responses on the NTSR1 protein were corrected by subtraction of responses on a blank flow cell. Association rates (kon or Ka) and dissociation rates (koff or Kd) were calculated using a simple one-to-one Langmuir binding model with separate fittings of kon and koff. (CYTIVA® BIACORET™ Insight Evaluation Software).
Molecule,"Ka (kon, association rate) [M⁻¹ s⁻¹]","Kd (koff, dissociation rate) [s⁻¹]"
B1,787700,0.0008084
B2,461400,0.0006575

# System: not listed separately
# Assay: In vivo pharmacokinetic analysis (MSD ECL total antibody assay)
# Conditions: BALB/c mice, 5 mg/kg via the tail vein, total antibody
# Excerpt: This Example used Meso Scale Discovery (MSD) Electrochemiluminescent (ECL) method to conduct the PK analysis of the anti-NTSR1 antibodies αNTSR1 (AKT2), αNTSR1 (AKT2 Hu/Hu) and αNTSR1 (AKT2 Hu/Hd) in BALB/c mice samples. The MSD assay can measure both conjugated and unconjugated antibodies. As illustrated in this example, for total antibody assay (including conjugated and unconjugated antibodies), the plate is coated with goat anti-human IgG, which can capture all humanized antibodies (conjugated and unconjugated).
# The mice were administered at a dose level of 5 mg/kg via the tail vein. Blood samples were then obtained at different time points for determining the concentrations of αNTSR1 (AKT2), αNTSR1 (AKT2 Hu/Hu) and αNTSR1 (AKT2 Hu/Hd) in mice by MESO QuickPlex SQ 120 method. The PK parameters of αNTSR1 (AKT2), αNTSR1 (AKT2 Hu/Hu) and αNTSR1 (AKT2 Hu/Hd) were analyzed by noncompartmental analysis using PHOENIX™ for WinNonlin Program, version 6.3.
Molecule,MRT [h],Vss [L/kg],t½ [h]
B1,252 ± 116,0.120 ± 0.026,182 ± 90.8
B2,209 ± 62.5,0.135 ± 0.020,156 ± 48.6

# Same assay, conditions: BALB/c mice, 5 mg/kg via the tail vein; listed as αNTSR1 (AKT2 Hu/Hd), 5 mg/kg
row,Molecule,in vivo half live [h]
1,B2,156 ± 48.6

# Same assay, conditions: BALB/c mice, 5 mg/kg via the tail vein; listed as αNTSR1 (AKT2 Hu/Hu), 5 mg/kg
row,Molecule,in vivo half live [h]
1,B1,182 ± 90.8

# System: FaDu cells
# Assay: In vitro cytotoxicity study (CELLTITER-GLO)
# Type: cell-based, human
# Conditions: 72 hours treatment, cell viability, read-out: Relative IC50
# Procedure: Human head and neck cancer cell line FaDu was respectively grown in RPMI-1640 medium (ATCC® modification) supplemented with 10% fetal bovine serum. The FaDu cell lines were maintained in an atmosphere of 5% CO2 in a humidified 37° C. incubator. The day before treatment, cells were collected and seeded into 96-well plates (4,000 cells per well). Each treatment was performed in eight triplicate data points. After the treatment of 72 hours, cell viability was assessed by CELLTITER-GLO® kit (PROMEGA®) according to the manufacturer's instruction. At the end of the incubation, luminescence was measured using a SpectraMax i3x Multi Mode Detection Platform (MOLECULAR DEVICES®). Compound cytotoxicity was evaluated in comparison to cells treated with 0.05% PBS (ADCs) or 0.05% DMSO (toxic payload). IC50 values were calculated by fitting viability data with a four-parameter logistic equation using GRAPHPAD® prism 5.0 software.
row,Molecule,IC50 [nM]
1,B3,36.9
2,B4,12.5
3,B5,55

# System: FaDu human head and neck cancer xenograft
# Assay: Xenograft model of anti-NTSR1 ADCs (head and neck cancer)
# Type: in vivo, male NOD SCID mice
# Conditions: 5 mg/kg, Day 10 to Day 17
# Procedure: The aim of this study was to evaluate the in vivo anti-tumor efficacy of αNTSR1 (AKT2) 4seco-DUBA, αNTSR1 (AKT2 Hu/Hu) 4seco-DUBA, and αNTSR1 (AKT2 Hu/Hd) 4seco-DUBA in FaDu human head and neck cancer xenograft model in male NOD SCID mice.
# Formulations respectively comprising test article αNTSR1 (AKT2) 4seco-DUBA, test article αNTSR1 (AKT2 Hu/Hu) 4seco-DUBA, test article αNTSR1 (AKT2 Hu/Hd) 4seco-DUBA, and Hu IgG were formulated by diluting the stock with a 25 mM sodium citrate buffer (pH 6.5). […]
# The FaDu cells were maintained in vitro as a monolayer culture in RPMI-1640 medium supplemented with 10% fetal bovine serum at 37° C. in an atmosphere of 5% CO2 in air. The tumor cells were routinely sub-cultured twice weekly by trypsin-EDTA treatment. The cells growing in an exponential growth phase were harvested and counted for tumor inoculation.
# Male NOD SCID mice at age of 6-7 weeks were quarantined for one week. Five mice were housed in each cage. All animals were hosted in the animal facility with a 12-h light/12-h dark cycle at 19-25° C. Animals had free access to rodent pellet foods and water ad libitum.
# FaDu cells were subcutaneously (SC) implanted (4×10^6 cells in 1:1 PBS/matrigel mixture at 0.1 mL per mouse) into the right flank of male NOD SCID mice. When the average tumor volume had reached about 200 mm^3, the mice were randomly divided into 7 groups (N=6 per group). Each of Hu IgG, αNTSR1 (AKT2) 4seco-DUBA (5 mg/kg), αNTSR1 (AKT2 Hu/Hu) 4seco-DUBA (5 mg/kg), and αNTSR1 (AKT2 Hu/Hd) 4seco-DUBA (5 mg/kg) was intravenously administered twice weekly for 3 weeks.
# The tumor volumes, body weights, mortality, and signs of overt toxicity were monitored and recorded three times weekly for 28 days. Tumor volumes (mm^3) were measured three times per week using calipers and calculated according to the formula: Tumor Volume=(w^2×l)/2, where w=width and l=length in diameter (mm) of the tumor. The percentages of tumor growth inhibition (TGI) were calculated using the following formula: % TGI=[1−(T/C)]×100%, where T and C represent the mean tumor volumes of the treatment group and the control group, respectively. A TGI (%) value≥58% was considered as indicating significant anti-tumor activity. Animals were weighed three times weekly until the completion of the study.
row,Molecule,FaDu tumor growth
1,B3,significantly reduced FaDu tumor growth
2,B4,significantly reduced FaDu tumor growth
3,B5,significantly reduced FaDu tumor growth

# Same assay, conditions: 5 mpk, IV, BIW × 3; Day 0
row,Molecule,TGI % (1-T/C) Day 0 [%]
1,B1,0.0
2,B2,0.0
3,B3,0.0
4,B4,0.0
5,B5,0.0

# Same assay, conditions: 5 mpk, IV, BIW × 3; Day 3
row,Molecule,TGI % (1-T/C) Day 3 [%]
1,B1,17.7
2,B5,6.6

# Same assay, conditions: 5 mpk, IV, BIW × 3; Day 5
row,Molecule,TGI % (1-T/C) Day 5 [%]
1,B1,33.4
2,B2,13.1
3,B3,28.5
4,B4,17.5
5,B5,29.8

# Same assay, conditions: 5 mpk, IV, BIW × 3; Day 7
row,Molecule,TGI % (1-T/C) Day 7 [%]
1,B1,37.3
2,B2,28.4
3,B3,54.4
4,B4,47.2
5,B5,56.1

# Same assay, conditions: 5 mpk, IV, BIW × 3; Day 10
row,Molecule,TGI % (1-T/C) Day 10 [%]
1,B1,13.4
2,B2,36.2
3,B3,68.5
4,B4,65.4
5,B5,60.9

# Same assay, conditions: 5 mpk, IV, BIW × 3; Day 12
row,Molecule,TGI % (1-T/C) Day 12 [%]
1,B1,6.7
2,B2,40.9
3,B3,83.8
4,B4,72.2
5,B5,62.7

# Same assay, conditions: 5 mpk, IV, BIW × 3; Day 14
row,Molecule,TGI % (1-T/C) Day 14 [%]
1,B1,25.6
2,B2,37.8
3,B3,90.5
4,B4,83.8
5,B5,65.2

# Same assay, conditions: 5 mpk, IV, BIW × 3; Day 17
row,Molecule,TGI % (1-T/C) Day 17 [%]
1,B1,26.9
2,B2,32.5
3,B3,95.3
4,B4,90.8
5,B5,76.6
